Experimental data as given in patent US20230212549A1, “COMPOUNDS COMPRISING A […] LIGAND AND USE THEREOF” (priority 2021, published 2023).
Bridge positions count the residues as written; N and C are the ends.

Biological target: T1, DPP3, Q9NY33
T1 chain: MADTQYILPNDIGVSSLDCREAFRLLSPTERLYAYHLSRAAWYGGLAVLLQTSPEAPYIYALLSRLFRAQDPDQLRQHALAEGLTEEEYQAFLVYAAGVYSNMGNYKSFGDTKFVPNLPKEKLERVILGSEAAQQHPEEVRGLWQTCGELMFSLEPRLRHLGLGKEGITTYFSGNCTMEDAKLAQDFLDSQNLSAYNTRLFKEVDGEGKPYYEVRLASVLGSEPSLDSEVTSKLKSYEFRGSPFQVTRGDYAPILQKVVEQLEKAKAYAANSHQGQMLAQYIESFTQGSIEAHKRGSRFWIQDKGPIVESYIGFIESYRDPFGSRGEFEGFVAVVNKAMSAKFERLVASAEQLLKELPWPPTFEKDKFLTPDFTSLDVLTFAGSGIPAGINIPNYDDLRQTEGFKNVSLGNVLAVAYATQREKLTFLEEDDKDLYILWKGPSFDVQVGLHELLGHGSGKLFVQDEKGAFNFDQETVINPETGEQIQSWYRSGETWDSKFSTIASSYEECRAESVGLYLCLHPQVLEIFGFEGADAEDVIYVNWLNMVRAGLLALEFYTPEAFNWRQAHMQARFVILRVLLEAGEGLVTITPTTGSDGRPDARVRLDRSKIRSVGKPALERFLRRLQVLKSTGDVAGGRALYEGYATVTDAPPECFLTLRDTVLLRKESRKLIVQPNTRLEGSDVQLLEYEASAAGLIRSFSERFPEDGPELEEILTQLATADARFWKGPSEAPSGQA
Assay: cell-based or functional assay

Percentage inhibition (%) at 1 µM: 2%
Percentage inhibition (%) at 10 µM: -1%
B1: Hex-[Cys(tMeBn(DOTA-AET))-Pro-Pro-Thr-Gln-Phe-Cys]-OH (peptide)
peptide: Hex-CPPTQFC-OH
modifications: bridge 1-7; not fully specified (bridges); printed as Hex-[Cys(tMeBn(DOTA-AET))-Pro-Pro-Thr-Gln-Phe-Cys]-OH
